Our source for the protein production values is a protein production outcome set (Wang et al. 2014).
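Note: failed if final PepcDB status was selected cloned or expressed and not failed if soluble or beyond.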

The data set in a line: label from the status in PepcDB records.
Turning to “MKKEKKDYYEILGVPRDATQEEIKRAYKRLVKEWHPDRHPENRKEAEQRFKEIQEAYEVLSDPQKRAMYDRFGYVGEQPTYQETESGGFFDDIFRDFENIFNRDIFDVFFGERPHQEERREYARRGEDIRYEIEVTLSDLINGAEIPVEYERYETCPRCGGTGVEPNAGYMDCPSCGGTGRIREERRSFFGYFVSERTCERCGGTGKIPREYCHECGGSGRVLRKVRRTVKIPPNVEDGTHLRITGGGNAGYYGGPYGDLIIIVRVKPDPRFKKSGSDLVYDVTIDYLQAILGTTVEVPLPEGGTTMLKIPPGTQPETVFRLKGKGLPNRYGRRGDLIVNVHVEIPKSLSREERKVLEELAKKRGVTIG”, the protein production entry is “failed”. With “MKKFKFTLFSLLVIIFSGLLIQRFSGYFYTTPVGIVKSVKIIDSEQLLTVKLVNNTKKTVVVKVKFNGNESTNPVFNKNNQILLDNSTKKWEFISLKRDGYTFILVVSFVSLVLGIAGKKGFFSLVGILFNIIFLFFLLWINQRNRSINLLLLISIYTIIAIIISTGTLYGLKKIDLRKVLATIFSVFLSYFITTITMKLLNDQGLRYEEMQFLTRPYRTVFLASLMLGGIGAALDNVVVIISSLDQLVRHTPEINTKELIESGKNIASDTTTSMINVLLFAYLSSATPFFIFYLANGWDFVETFKMHLSLEIMRILCGGLAILFTIPSSFLFFLLFKKIKKEGENR” the entry was “failed”; with “MKKFPELRKYTNPVWVRLVILCQKKLKVCFIMFIVMSISTSAEIYYEEAEEFLSKGDLVQACEKYYKAAEEAIKLLVIENNLKEIINEAEEHGWDSKTLNDAVTELSYKLGDNIIDMWASAVTLFTARKFMDKDLIENYKKDIKTLIEEAKQRFSIKVLKLEHHHHHH”, “failed”. With “MKKFSAIFGLLSVIFVIMAISQVSGLSGAITPPKIDIMVNASNGLPQDINSIIYVKNPNSFPVKVEMVTTGDLNNSKKVEVKIMKNNFTLKPGETVGVNITFTVKEKDNYEGDILTKISPVDYGDDKKGVNLKASVVLPTKVAIMVVGNEIHTKELVITAVLIISILGLGAMLIRRHL” the entry was “failed”; with “MKKGLTFSITSAALFFGMNHVASADQIHTVKEDAKLTDIAQTFATTTTEIQNLNHLQNRDYVQVGETIVLPDSDIVEVKDGDTIKAIAERHQMTMNQLYQLNPNLGEVIYPGQLVAVSEKGSAHLNNQLQQIFNSHEAVQPTAQINDDERNKAENNTIRNVRTSGNITPSATQTWQNNDYSASDRQQVSNTTANEQVTSNYQYSPVSHASNGSNYYDWGQCTYYAFDRRQQLGKSVGNLWGNANNWASAAQQSGYQVNNTPEVGAIFQSTAGNYGHVGVVESKNADGSIVVSEMNWQGVGQKSYRTIHNTGQYNYIHLEHHHHHH”, “failed”. With “MKKGYMYIALTTIIFSTMEIALKLVSKSFNPIQLNFTRFFIGGLFLVPFALNTLHKRHLSISTKDLRFFALLGLLGTVISMSLYQLAVQNTKASVVAVLFSCNPVFVTILAFFLLREAIHKNNIAALILEVIGTIVIIDPLNTKLSILGLALTIASTLIFAAYGVFGKKKCAKYGGIVVTCFGFLFGSIEMLVLIGITHITPIANLFSSNGIAIFSNIPLFTGYSLKNLPLMCFICLINTGAGFACYFKAMEETSAQTTSLVFFFKPILAPILALILLHEIIPVNMIIGILFILAGSISSILPELLAQRQTKLEKTA” the entry was “failed”. With “MKKIATATIATAGIATFAFAHHDAQAAEQNNDGYNPNDPYSYSYTYTIDAEGNYHYTWKGNWSPDRVNTSYNYNNYNNYNYYGYNNYSNYNNYSNYNNYNNYQSNNTQSQRTTQPTGGLGASYSTSSSNVHVTTTSAPSSNGVSLSNARSASGNLYTSGQCTYYVFDRVGGKIGSTWGNANNWANAAARSGYTVNNSPAKGAILQTSQGAYGHVAYVEGVNSNGSIRVSEMNYGHGAGVVTSRTISASQAASYNYIHLEHHHHHH”, the protein production result is given as “failed”. The value for “MKKIFVIITTLLAVAIIIGSIITVVFSQRQAQTFKIQQQQFVKKPIPTLFLHGFGGSANSEKFMVKQAEKRGVTKDIITAYVSKDGAVTFKGKLRKDAVNPIVKIELENNRQGYLDKNAAWFKNVLTKLQSEYNFDKFNFVGHSMGNLTFAQYMMTYGNDKSLPQLNKQVNIAGTFNGVLNMNEDVNEITVDKDGKPSRMNQPYQQLRVLKDIYKGKGIEVLNIYGDLKDGTHSDGRVSNSSSKSLKYLLGNSPKSYRESKYEGEPAQHSQLHENENVANELIDFLWKK” was “failed”.
